Test results published in patent US20040235112.

Experiments:
GST-p38 = GST-p38 (UniProt Q16539)
GST-ATF2 = biological target: T1, GST-ATF2 (UniProt P15336)
T1 sequence: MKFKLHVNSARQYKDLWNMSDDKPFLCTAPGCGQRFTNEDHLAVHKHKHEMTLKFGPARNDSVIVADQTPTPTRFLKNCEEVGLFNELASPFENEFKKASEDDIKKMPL

GST-JNK2 = GST-JNK2 (UniProt P45984)
GST-cJun(1-79) = GST-cJun(1-79) (UniProt P05412)
GST-cJun(1-79), sequence (P05412 1-79): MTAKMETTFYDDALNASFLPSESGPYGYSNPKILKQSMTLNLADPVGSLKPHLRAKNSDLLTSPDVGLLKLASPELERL

GST-p38, sequence (Q16539 whole entry): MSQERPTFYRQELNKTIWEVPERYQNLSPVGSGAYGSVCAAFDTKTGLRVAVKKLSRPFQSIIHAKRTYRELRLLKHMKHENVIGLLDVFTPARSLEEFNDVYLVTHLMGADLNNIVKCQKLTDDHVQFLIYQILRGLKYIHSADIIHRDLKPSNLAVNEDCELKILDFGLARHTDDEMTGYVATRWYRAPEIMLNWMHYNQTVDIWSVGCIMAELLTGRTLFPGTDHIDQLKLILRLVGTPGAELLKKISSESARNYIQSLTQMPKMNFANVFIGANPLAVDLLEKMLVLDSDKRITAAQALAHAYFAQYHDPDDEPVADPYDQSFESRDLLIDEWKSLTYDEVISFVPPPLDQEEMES
GST [GST: P08515], sequence (P08515 whole entry): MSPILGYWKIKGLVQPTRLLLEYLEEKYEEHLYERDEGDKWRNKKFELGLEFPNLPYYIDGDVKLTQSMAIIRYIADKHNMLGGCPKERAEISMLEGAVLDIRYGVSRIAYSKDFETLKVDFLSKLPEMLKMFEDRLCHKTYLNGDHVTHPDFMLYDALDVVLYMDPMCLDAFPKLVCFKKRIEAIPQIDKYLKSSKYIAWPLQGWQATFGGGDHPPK

Substance: 3xHA-MEK6
- phosphorylation of GST-p38 in immune complex kinase assay (HeLa lysates, anti-HA 12CA5 immunoprecipitate) (GST-p38): MEK6 activation by anisomycin as measured by its ability to phosphorylate p38, was observed as early as 10 min after treatment

Substance: GST-MEK6
- phosphorylation of substrate in in vitro kinase assay ([γ-32P]ATP, SDS-PAGE, autoradiography) (GST [GST: P08515]): MEK6 efficiently phosphorylated p38 but none of the other substrates
- phosphorylation of GST-ATF2 in coupled in vitro kinase assay (GST-ATF2): ATF2 was not directly phosphorylated by MEK6
- phosphorylation of substrate in in vitro kinase assay ([γ-32P]ATP, SDS-PAGE, autoradiography) (GST-JNK2): MEK6 efficiently phosphorylated p38 but none of the other substrates
- phosphorylation of GST-Jun(1-79) in coupled in vitro kinase assay (GST-cJun(1-79)): MEK6 did not cause increased phosphorylation of Jun (GST-Jun(1-79) ...) either directly or in combination with JNK2
- phosphorylation of substrate in in vitro kinase assay ([γ-32P]ATP, SDS-PAGE, autoradiography) (GST-p38): MEK6 efficiently phosphorylated p38 but none of the other substrates
- phosphorylation of substrate in in vitro kinase assay ([γ-32P]ATP, SDS-PAGE, autoradiography) (His-ERK1[K52R]): MEK6 efficiently phosphorylated p38 but none of the other substrates
